Measurements as given in US20240101668A1 (WUGEN, published 2024).
Substitutions are numbered along the chain they refer to.

B1: Polypeptide No. 111 (scFv, V domains shown)
VH: QVQLVQSGAEVKKPGASVKVSCKASGGTFTSYGISWVRQAPGQGLEWMGWINPNTGVTNYAQDFQGRVTMTRDTSTSTVYMELSSLRSEDTAVYYCANEQGGFDYWGQGTLVTVSS
VL: EIVMTQSPATLSVSPGERATLSCRASQSVAGSYLAWYQQKPGQAPRLLIYGASTRATGIPARFSGSGSGTEFTLTISSLQSEDFAVYYCQQYYSTPLTFGGGTKVEIKR
notes: scFv
B2: Polypeptide No. 120 (scFv, V domains shown)
VH: QVQLVQSGAEVKKPGASVKVSCKASGYTFTTYYMHWVRQAPGQGLEWMGWMNPNSGNTGYAQKFQGRVTMTRDTSTSTVYMELSSLRSEDTAVYYCARGHKVDSGYDPYGMDVWGQGTTVTVSS
VL: DIQMTQSPSSLSASVGDRVTITCRASQSIGTYLHWYQQKPGKAPKLLIYAISTLQNGVPSRFSGSGSGTDFTLTISSLQPEDFATYYCQQSYSPPLTFGGGTKVEIKR
notes: scFv
B3: Polypeptide No. 114 (scFv, V domains shown)
VH: QVQLVQSGAEVKKPGASVKVSCKASGGTFSKYAISWVRQAPGQGLEWMGWMNPNSGNTGYAQKFQGRVTMTRDTSTSTVYMELSSLRSEDTAVYYCARDQGLTGYFDLWGRGTLVTVSS
VL: DIQMTQSPSSLSASVGDRVTITCRASQSIGNWLAWYQQKPGKAPKLLIYKASSLESGVPSRFSGSGSGTDFTLTISSLQPEDFATYYCQQSYNTPPTFGPGTKVDIKR
notes: scFv
B4: Polypeptide No. 117 (scFv, V domains shown)
VH: EVQLLESGGGLVQPGGSLRLSCAASGFTFGDYPMSWVRQAPGKGLEWVAGISYDGLNEHYADSVKGRFTISRDNSKNTLYLQMNSLRAEDTAVYYCARDRDSGPSGFQHWGQGTLVTVSS
VL: B3 VL with S28T, N31T, K50D, N93S, P100Q, D105E
notes: scFv
B5: Polypeptide No. 126 (scFv, V domains shown)
VH: EVQLLESGGGLVQPGGSLRLSCAASGFTFTTYDMHWVRQAPGKGLEWVAGINWNSVIIDYADSVKGRFTISRDNSKNTLYLQMNSLRAEDTAVYYCAKDLLYYYDSIGAFDIWGQGTMVTVSS
VL: B2 VL with G30S, Y32W, H34A, I51A, T53S, N56S, Y92D, S93T, P94L
notes: scFv
B6: Polypeptide No. 122 (scFv, V domains shown)
VH: QVQLVQSGAEVKKPGASVKVSCKASGYTFTDYWLHWVRQAPGQGLEWMGTINPSGGSTSYSHKFQGRVTMTRDTSTSTVYMELSSLRSEDTAVYYCAKEEEGFWSGYAFDYWGQGTLVTVSS
VL: not shown
notes: scFv
B7: Polypeptide No. 119 (scFv, V domains shown)
VH: QVQLVQSGAEVKKPGASVKVSCKASGNTLTNDHIHWVRQAPGQGLEWMGWMNPNSGDTGYAQKFQGRVTMTRDTSTSTVYMELSSLRSEDTAVYYCARAGVDTAMVTYYYYGMDVWGQGTTVTVSS
VL: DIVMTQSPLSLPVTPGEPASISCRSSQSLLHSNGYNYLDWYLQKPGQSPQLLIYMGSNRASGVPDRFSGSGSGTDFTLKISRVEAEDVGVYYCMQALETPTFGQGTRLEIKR
notes: scFv
B8: Polypeptide No. 115 (scFv, V domains shown)
VH: QVQLVQSGAEVKKPGASVKVSCKASGYTFTGYYMHWVRQAPGQGLEWMGIISPSGGSPTYAQKFQGRVTMTRDTSTSTVYMELSSLRSEDTAVYYCAREGNGGMDVWGQGTTVTVSS
VL: not shown
notes: scFv
B9: Polypeptide No. 124 (scFv, V domains shown)
VH: EVQLVESGGGLVKPGGSLRLSCAASGFTFSSYWMHWVRQAPGKGLEWVAVIWYDGSNKYYADSVKGRFTISRDDSKNTLYLQMNSLKTEDTAVYYCVRDGARSGMDVWGQGTTVTVSS
VL: EIVMTQSPATLSVSPGERATLSCRASQSVSTYVAWYQQKPGQAPRLLIYGASTRATGIPARFSGSGSGTEFTLTISSLQSEDFAVYYCQQYYDTPLTFGGGTKVEIKR
notes: scFv
B10: Polypeptide No. 127 (scFv, V domains shown)
VH: QVQLVQSGAEVKKPGASVKVSCKASGYTFTNHHMHWVRQAPGQGLEWMGMINPSGGSTSYAQKFQGRVTMTRDTSTSTVYMELSSLRSEDTAVYYCARGRPVDIVATYYFDYWGQGTLVTVSS
VL: DIQMTQSPSSLSASVGDRVTITCQASQDIRNFLNWYQQKPGKAPKLLIYGASTLHSGVPSRFSGSGSGTDFTLTISSLQPEDFATYYCQQSYSTPLTFGGGTKVEIKR
notes: scFv
B11: Polypeptide No. 113 (scFv, V domains shown)
VH: QVQLVQSGAEVKKPGSSVKVSCKASGGTFSSYDINWVRQAPGQGLEWMGGLIPVFGTTHYAQNFQGRVTITADESTSTAYMELSSLRSEDTAVYYCATGLGVTTSNYYYGMDVWGQGTLVTVSS
VL: DIQMTQSPSSLSASVGDRVTITCRASQGIRNDIGWYQQKPGKAPKLLIYAASTLQSGVPSRFSGSGSGTDFTLTISSLQPEDFATYYCQQTYMMPYTFGQGTKLEIKR
notes: scFv
B12: Polypeptide No. 118 (scFv, V domains shown)
VH: EVQLVESGGGLVKPGGSLRLSCAASGFTISNAWMSWVRQAPGKGLEWVAHIWNDGSQKYYADSVKGRFTISRDDSKNTLYLQMNSLKTEDTAVYYCARDGALGVGPDDYWGQGTLVTVSS
VL: DIVMTQSPLSLPVTPGEPASISCRSSQSLLHSNGYNYLDWYLQKPGQSPQLLIYAASSLQSGVPDRFSGSGSGTDFTLKISRVEAEDVGVYYCMQGLQTPHTFGGGTKVEIKR
notes: scFv
B13: Polypeptide No. 116 (scFv, V domains shown)
VH: EVQLLESGGGLVQPGGSLRLSCAASGFTFSNYAMAWVRQAPGKGLEWVSAISGSGGGTYYADSVKGRFTISRDNSKNTLYLQMNSLRAEDTAVYYCAREGGYDPDYYYYGMDVWGQGTTVTVSS
VL: DIQMTQSPSSLSASVGDRVTITCRASQSISSYLNWYQQKPGKAPKLLIYATSRLQSGVPSRFSGSGSGTDFTLTISSLQPEDFATYYCQQGFNFPPTFGGGTKVEIKR
notes: scFv
B14: Polypeptide No. 123 (scFv, V domains shown)
VH: EVQLLESGGGLVQPGGSLRLSCAASGFILGNAWMHWVRQAPGKGLEWVASVSGDGSDENYADSVKGRFTISRDNSKNTLYLQMNSLRAEDTAVYYCARDTHDYGDYAPFDYWGQGTLVTVSS
VL: B10 VL with R30N, F32Y, G50A, T53N, H55Q, S91T, T94F
notes: scFv
B15: Polypeptide No. 121 (scFv, V domains shown)
VH: QVQLVQSGAEVKKPGASVKVSCKASGDSFTDYYIHWVRQAPGQGLEWMGWMNPNSGNTGYAQQFQGRVTMTRDTSTSTVYMELSSLRSEDTAVYYCARDREYSSSSRYFDLWGRGTLVTVSS
VL: DIQMTQSPSSLSASVGDRVTITCRASQNIGNWLAWYQQKPGKAPKLLIYAASTLQSGVPSRFSGSGSGTDFTLTISSLQPEDFATYYCQQSYNSITFGPGTKVDIKR
notes: scFv
B16: Polypeptide No. 125 (scFv, V domains shown)
VH: QVQLVQSGAEVKKPGASVKVSCKASGYSFTTYDIHWVRQAPGQGLEWMGWMNPNSGNTGYAQKFQGRVTMTRDTSTSTVYMELSSLRSEDTAVYYCATDHWVLGGFDYWGQGTLVTVSS
VL: DIQMTQSPSSLSASVGDRVTITCQASQDISNYLNWYQQKPGKAPKLLIYAASTLQSGVPSRFSGSGSGTDFTLTISSLQPEDFATYYCQQYSYLPVTFGQGTKLEIKR
notes: scFv
B17: Polypeptide No. 112 (scFv, V domains shown)
VH: QVQLVQSGAEVKKPGSSVKVSCKASGSTLTGYDIHWVRQAPGQGLEWMGGIIPFLGTASYAQEFQGRVTITADESTSTAYMELSSLRSEDTAVYYCARGGGSGYDLDYWGQGTLVTVSS
VL: DIQMTQSPSSLSASVGDRVTITCRSSESISSWLAWYQQKPGKAPKLLIYSASTLQSGVPSRFSGSGSGTDFTLTISSLQPEDFATYYCQQSYSTPVTFGQGTRLEIKR
notes: scFv

Each binder was assayed against T1, huCD33-G69-Fc recombinant protein (human, UniProt P20138 18-259) (assay: BLI).
T1 construct: extracellular domain; also called CD33 R69G
T1 sequence (P20138 18-259 R69G): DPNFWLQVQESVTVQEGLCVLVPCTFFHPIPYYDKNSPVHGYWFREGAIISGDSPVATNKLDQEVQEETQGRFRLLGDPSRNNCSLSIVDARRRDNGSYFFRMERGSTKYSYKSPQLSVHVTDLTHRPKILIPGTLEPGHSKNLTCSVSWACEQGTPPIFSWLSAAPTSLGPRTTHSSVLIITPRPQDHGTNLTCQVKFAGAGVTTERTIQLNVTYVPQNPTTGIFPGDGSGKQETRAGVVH
Experimental: Discovered scFvs were analyzed for binding to huCD33-R69-His or huCD33-G69-Fc recombinant proteins (for anti-CD33 scFvs; for CLL-1 scFvs, huCLL1-K244-Avi-Tev-His or huCLL1-Q244-Avi-Tev-His were used; for FLT3, huFLT3-T227-His or huFLT3-M227-Fc were used) using BLI on a ForteBio Octet HTX instrument. Streptavidin-coated biosensors were loaded with biotinylated anti-V5 tag monoclonal antibody for 5 min and were then quenched and blocked with 20 μM amine-PEG2-Biotin for 5 min. scFvs were captured on biosensors from scFv clone periplasmic extracts. huCD33 (or huCLL-1, or huFLT3) proteins were then associated with the captured scFvs for 2 minutes, followed by dissociation with buffer (1×HBST [10 mM HEPES pH 7.4, 150 mM NaCl, 0.05% Tween-20], 1 g/L BSA) for 5 minutes. […] Data was fitted with 1:1 Langmuir equation and off-rate values were reported.

Q: Does B1 bind?
A: binds

Q: Does B2 bind?
A: binds

Q: Does B3 bind?
A: binds

Q: Does B4 bind?
A: binds

Q: Does B5 bind?
A: binds

Q: Does B6 bind?
A: binds

Q: Does B7 bind?
A: binds

Q: Does B8 bind?
A: binds

Q: Does B9 bind?
A: binds

Q: Does B10 bind?
A: binds

Q: Does B11 bind?
A: binds

Q: Does B12 bind?
A: binds

Q: Does B13 bind?
A: binds

Q: Does B14 bind?
A: binds

Q: Does B15 bind?
A: binds

Q: Does B16 bind?
A: binds

Q: Does B17 bind?
A: binds

Each binder was assayed against T2, huCD33-R69 stably expressed on Jurkat cells (human, UniProt P20138 18-364) (assay: FACS on cells;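 note: fixed Jurkat lines probed with myc-tagged scFv periplasmic extracts, anti-myc PE flow cytometry, PE MFI fold binned − <2, + 2–10, ++ 10–30, +++ >30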).
T2 construct: whole, on cells; >200,000 receptors per cell; also called CD33 WT; CD33^ARG69
T2 sequence (P20138 18-364): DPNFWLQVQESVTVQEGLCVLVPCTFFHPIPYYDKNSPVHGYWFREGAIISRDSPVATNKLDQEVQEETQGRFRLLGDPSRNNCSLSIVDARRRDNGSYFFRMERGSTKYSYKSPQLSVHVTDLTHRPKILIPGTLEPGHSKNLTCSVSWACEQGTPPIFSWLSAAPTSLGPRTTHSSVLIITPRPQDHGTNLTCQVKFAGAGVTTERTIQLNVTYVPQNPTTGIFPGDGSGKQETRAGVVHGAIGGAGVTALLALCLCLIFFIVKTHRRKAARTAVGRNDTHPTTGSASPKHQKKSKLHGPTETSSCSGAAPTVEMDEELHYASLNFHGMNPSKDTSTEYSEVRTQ

Q: B1 was tested. Which “FACS geometric mean fold change over Jurkat parental” value (“FACS geometric mean fold change” below) did it give?
A: > 30 fold

Q: B2 was tested. Which “FACS geometric mean fold change” value did it give?
A: > 30 fold

Q: For B3, which “FACS geometric mean fold change” value is on record?
A: > 30 fold

Q: Which “FACS geometric mean fold change” value does the source give for B4 here?
A: 2 to 10 fold

Q: With B5 as the binder, how does the “FACS geometric mean fold change” value read?
A: > 30 fold

Q: With B6 as the binder, how does the “FACS geometric mean fold change” value read?
A: 10 to 30 fold

Q: For B7, which “FACS geometric mean fold change” value is on record?
A: 10 to 30 fold

Q: B8 was tested. Which “FACS geometric mean fold change” value did it give?
A: 10 to 30 fold

Q: How did the “FACS geometric mean fold change” value turn out when B9 was run?
A: > 30 fold

Q: For B10, which “FACS geometric mean fold change” value is on record?
A: 10 to 30 fold

Q: For B11, which “FACS geometric mean fold change” value is on record?
A: > 30 fold

Q: With B12 as the binder, how does the “FACS geometric mean fold change” value read?
A: 10 to 30 fold

Q: With B13 as the binder, how does the “FACS geometric mean fold change” value read?
A: > 30 fold

Q: Which “FACS geometric mean fold change” value does the source give for B14 here?
A: > 30 fold

Q: How did the “FACS geometric mean fold change” value turn out when B15 was run?
A: 10 to 30 fold

Q: For B16, which “FACS geometric mean fold change” value is on record?
A: > 30 fold

Q: B17 was tested. Which “FACS geometric mean fold change” value did it give?
A: 2 to 10 fold

Each binder was assayed against T3, huCD33-G69 stably expressed on Jurkat cells (human, UniProt P20138 18-364) (assay: FACS on cells;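 note: fixed Jurkat lines probed with myc-tagged scFv periplasmic extracts, anti-myc PE flow cytometry, PE MFI fold binned − <2, + 2–10, ++ 10–30, +++ >30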).
T3 construct: whole, on cells; >200,000 receptors per cell; also called CD33 Mutant; CD33 R69G
T3 sequence (P20138 18-364 R69G): as the sequence (P20138 18-364) above, with R52G counted along it

Q: How did the “FACS geometric mean fold change” value turn out when B1 was run?
A: 10 to 30 fold

Q: Which “FACS geometric mean fold change” value does the source give for B2 here?
A: > 30 fold

Q: B3 was tested. Which “FACS geometric mean fold change” value did it give?
A: 10 to 30 fold

Q: How did the “FACS geometric mean fold change” value turn out when B4 was run?
A: 2 to 10 fold

Q: With B5 as the binder, how does the “FACS geometric mean fold change” value read?
A: 10 to 30 fold

Q: How did the “FACS geometric mean fold change” value turn out when B6 was run?
A: > 30 fold

Q: Which “FACS geometric mean fold change” value does the source give for B7 here?
A: > 30 fold

Q: For B8, which “FACS geometric mean fold change” value is on record?
A: 10 to 30 fold

Q: For B9, which “FACS geometric mean fold change” value is on record?
A: > 30 fold

Q: For B10, which “FACS geometric mean fold change” value is on record?
A: 10 to 30 fold

Q: How did the “FACS geometric mean fold change” value turn out when B11 was run?
A: 10 to 30 fold

Q: For B12, which “FACS geometric mean fold change” value is on record?
A: 2 to 10 fold

Q: How did the “FACS geometric mean fold change” value turn out when B13 was run?
A: > 30 fold

Q: Which “FACS geometric mean fold change” value does the source give for B14 here?
A: > 30 fold

Q: How did the “FACS geometric mean fold change” value turn out when B15 was run?
A: 10 to 30 fold

Q: With B16 as the binder, how does the “FACS geometric mean fold change” value read?
A: > 30 fold

Q: For B17, which “FACS geometric mean fold change” value is on record?
A: 2 to 10 fold
